For two substances, Kd results are on record in article PMC9943068.

One experiment addresses DNMT1 (Homo sapiens) (UniProt P26358). Particulars: cited from earlier work.
The target in experiment [1] is hUSP7 residues 561-1102 (human) (UniProt Q93009). Briefly: ITC; 20 µM USP7(561-1102) in the cell titrated with 1.2 mM PAF15 at 293 K; 10 mM HEPES pH 7.5, 150 mM NaCl, 0.25 mM TCEP; one-site model. For orientation: Isothermal titration calorimetry measures the heat released or taken up as one component is titrated into another.

UniProt P26358, sequence (P26358 whole entry, the tested form may be a part): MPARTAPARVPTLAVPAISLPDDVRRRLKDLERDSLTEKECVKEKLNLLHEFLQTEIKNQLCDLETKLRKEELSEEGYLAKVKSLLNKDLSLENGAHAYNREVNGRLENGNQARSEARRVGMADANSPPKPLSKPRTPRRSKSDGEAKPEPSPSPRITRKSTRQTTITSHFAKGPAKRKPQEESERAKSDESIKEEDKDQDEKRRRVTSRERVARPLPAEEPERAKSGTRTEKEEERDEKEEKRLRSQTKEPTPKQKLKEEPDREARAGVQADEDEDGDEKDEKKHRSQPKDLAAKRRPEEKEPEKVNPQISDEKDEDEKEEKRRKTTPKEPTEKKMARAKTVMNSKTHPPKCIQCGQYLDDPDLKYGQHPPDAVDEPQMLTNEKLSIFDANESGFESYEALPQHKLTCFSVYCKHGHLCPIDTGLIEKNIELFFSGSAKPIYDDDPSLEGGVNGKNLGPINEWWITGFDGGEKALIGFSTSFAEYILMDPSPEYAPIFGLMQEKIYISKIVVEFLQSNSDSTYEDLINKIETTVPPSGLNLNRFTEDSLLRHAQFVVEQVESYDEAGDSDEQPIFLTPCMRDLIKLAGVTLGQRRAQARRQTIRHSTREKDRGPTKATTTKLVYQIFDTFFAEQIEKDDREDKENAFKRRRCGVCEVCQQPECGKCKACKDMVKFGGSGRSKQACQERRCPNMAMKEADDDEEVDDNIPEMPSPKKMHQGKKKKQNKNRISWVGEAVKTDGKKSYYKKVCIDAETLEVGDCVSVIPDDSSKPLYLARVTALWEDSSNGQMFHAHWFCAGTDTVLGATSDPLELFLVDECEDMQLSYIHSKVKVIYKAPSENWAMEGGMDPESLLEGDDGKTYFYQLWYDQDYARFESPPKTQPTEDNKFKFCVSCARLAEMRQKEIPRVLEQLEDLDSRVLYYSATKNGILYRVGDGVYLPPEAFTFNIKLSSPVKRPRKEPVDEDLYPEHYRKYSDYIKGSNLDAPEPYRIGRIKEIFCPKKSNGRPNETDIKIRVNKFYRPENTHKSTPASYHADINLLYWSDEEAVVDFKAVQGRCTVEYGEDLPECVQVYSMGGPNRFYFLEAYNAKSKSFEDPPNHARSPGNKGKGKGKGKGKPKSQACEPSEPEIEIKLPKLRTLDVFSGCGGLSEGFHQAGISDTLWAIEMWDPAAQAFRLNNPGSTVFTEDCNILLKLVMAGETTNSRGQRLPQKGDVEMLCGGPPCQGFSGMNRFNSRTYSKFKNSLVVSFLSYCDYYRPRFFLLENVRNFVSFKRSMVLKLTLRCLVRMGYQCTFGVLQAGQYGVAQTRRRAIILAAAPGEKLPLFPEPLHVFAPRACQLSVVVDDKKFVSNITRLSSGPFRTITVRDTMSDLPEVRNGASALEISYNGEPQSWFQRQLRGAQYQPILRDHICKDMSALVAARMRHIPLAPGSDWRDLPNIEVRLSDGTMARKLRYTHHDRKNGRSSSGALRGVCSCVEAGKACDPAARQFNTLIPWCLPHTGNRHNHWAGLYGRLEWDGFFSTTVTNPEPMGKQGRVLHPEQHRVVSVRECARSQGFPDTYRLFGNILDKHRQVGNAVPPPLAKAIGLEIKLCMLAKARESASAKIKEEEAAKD

A word on the Kd: it is a measure of binding affinity in units of concentration. In the case of USP7 561-1102 (from UniProt Q93009), the Kd with DNMT1 (Homo sapiens) is 0.6 µM.

For the substance “full-length hPAF15 wild-type, C-terminal FLAG tag (from UniProt Q15004 1-111) (natural protein)”, the Kd in experiment [1] stood at 32.7 µM.
